Assays:
[1] = biological target: purine nucleoside phosphorylase from Kluyveromyces lactis, 6xHis-tagged, as used in analytical gel filtration (Kluyveromyces lactis); assay: SEC; analytical size exclusion chromatography on a Superdex 200 Increase 10/300 GL column, calibrated with molecular weight marker proteins; single predominant peak at 12.5 mL
[2] = biological target: purine nucleoside phosphorylase from Kluyveromyces lactis, C-terminal 6xHis-tag variant (Kluyveromyces lactis); assay: crystal structure; C-terminal 6xHis-tag variant, 8 mg/mL in 25 mM Tris-HCl, 100 mM NaCl, pH 8.0, mixed with 0.1 M sodium acetate trihydrate pH 4.6, 8% PEG4000; space group P6(1), 1.97 Å, three molecules in the asymmetric unit

stoichiometry N [1]	stoichiometry N [2]	Substance
3	–	purine nucleoside phosphorylase from Kluyveromyces lactis, 6xHis-tagged, as used in analytical gel filtration (enzyme)
–	3	purine nucleoside phosphorylase from Kluyveromyces lactis, C-terminal 6xHis-tag variant (enzyme)

Source: paper PMC5074518
